The values that follow come from PMC4140278.

Assay [1] has as its target arrestin-3 (β-arrestin-2) (UniProt P32121). Put plainly: BRET, arrestin-3-Rluc / FLAG-FFA4-eYFP, 5 min. The conditions noted are these: for percent of reference: reference: wild type. Background: In BRET a luciferase serves as donor, and the signal depends on an acceptor being close.
For assay [2] the target is unchanged. Kind of assay: kinetic BRET, arrestin-3-Rluc / FFA4-eYFP. The conditions noted are these: reference: wild type; sites T347,S350,S357.

In turn, “FFA4 (GPR120) (from UniProt Q5NUL3) TTSSS/AAAAA-DD/AA” returned an other: Emax, % of wild type in assay [1] (reference: DD/AA, sites T347,T349,S350,S357,S360) of 21%.
In assay [1] (reference: DD/AA, sites T347,S350,S357), “FFA4 (GPR120) (from UniProt Q5NUL3) TSS/AAA-DD/AA” gave an other: Emax, % of wild type of 40%.
In assay [1] (sites S360), “FFA4 (GPR120) (from UniProt Q5NUL3) S360A” displayed a percent of reference of 85%.
As to “FFA4 (GPR120) (from UniProt Q5NUL3) TTSSS/AAAAA”, the “other: Emax, % of wild type” value is “weaker; reference 77 ± 2” in assay [1] (reference: TSS/AAA, sites T349,S360); “same; reference 38 ± 2” in assay [1] (reference: TSSS/AAAA, sites T349); “weaker; reference 84 ± 7” in assay [1] (reference: TTSS/AAAA, sites S360). For the same substance, the percent of reference in assay [1] (sites T347,T349,S350,S357,S360) came to 42%.
For the substance “FFA4 (GPR120) (from UniProt Q5NUL3) TSS/AAA”, the “other: t½ of association” value in assay [2] is given as “weaker; reference 46 ± 6”. The same substance displayed a percent of reference in assay [1] (sites T347,S350,S357) of 77%.
Regarding “FFA4 (GPR120) (from UniProt Q5NUL3) TUG-891 10 µM, 5 min”, the “other: milli-BRET units” value in assay [1] (reference: vehicle, sites T347,T349,S350,S357,S360) is “stronger; reference 63 ± 6”.
Turning to “FFA4 (GPR120) (from UniProt Q5NUL3) TSSS/AAAA”, in assay [1] (reference: TSS/AAA, sites S360), the “other: Emax, % of wild type” value is “weaker; reference 77 ± 2”. The substance also registered a percent of reference in assay [1] (sites T347,S350,S357,S360) of 38%.
“FFA4 (GPR120) (from UniProt Q5NUL3) TTSSS/AAAAA-EDD/AAA”: the “other: Emax, % of wild type” value in assay [1] (reference: EDD/AAA, sites T347,T349,S350,S357,S360) is “weaker; reference 69 ± 7”.
In the case of “FFA4 (GPR120) (from UniProt Q5NUL3) TTSS/AAAA”, the “other: Emax, % of wild type” value in assay [1] (reference: TSS/AAA, sites T349) is recorded as “same; reference 77 ± 2”. The percent of reference in assay [1] (sites T347,T349,S350,S357) was found to be 84%.
